US20080113343A1

Biological target: human sPLA2-IIA (Type IIA secreted phospholipase A2) (human) (UniProt P14555)
Experiment: cell-based or functional assay

human sPLA2-IIA (Type IIA secreted phospholipase A2) (human), sequence (P14555 21-144 limits assumed): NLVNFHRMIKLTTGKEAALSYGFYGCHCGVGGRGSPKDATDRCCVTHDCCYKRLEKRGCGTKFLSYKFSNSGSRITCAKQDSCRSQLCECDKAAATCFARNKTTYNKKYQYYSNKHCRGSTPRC

smallest effective dose, proliferation of unstimulated LNCaP and PC-3 cells (MTS assay, doses 1-100 nM): 1 nM
Substance: c(2NapA)LS(2NapA)R (cyclic (2Nap)LS(2Nap)R) (peptide)
